Data: the supplement of paper PMC10126150
± gives the standard deviation of the averaged measurements.

Tested on: ATP
Test: switch fluorescence ratio, 500 uM ATP over buffer (Cy3 cluster intensity, sum of 5 cycles each) (fold (ratio)); higher = stronger signal-on switching upon ATP binding; sequences stand for … in TCGTCGGCAGCGTCAGATGTGTATAAGAGACAGTTTTTTTTTTTTTTTTTTTTTTTTT…TC
Details: aptamer strand: ATP DNA aptamer (quencher-CACCTGGGGGAGTATTGCGGAGGAAGG + anchor), 100 nM annealed; ATP concentration: 500 uM
How it was run: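 Values give the fluorescence ratio for each switch-domain sequence, averaged from per-cluster ratios of summed target-cycle to summed buffer-cycle Cy3 intensity. The Cy3-labelled switching-strand clusters sat on a modified Illumina MiSeq flow-cell, were annealed to 100 nM quencher-labelled ATP aptamer, and were imaged in selection buffer, then after 15 min with 500 uM ATP at 22 °C. Five cycles ran with NaOH stripping and re-annealing between them, and clusters outside 100-1000 RFU were excluded.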
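Also: ATP exposure 15 min at 22 °C before imaging.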

Sequence	switch fluorescence ratio
GGGTTTTTTC	0.9798 ± 0.0046
GGTAAACAAA	1.026 ± 0.0079
GGTAAATTGA	1.04 ± 0.03
GGTAACATCG	1.003 ± 0.0066
GGTAACGTGA	1.01 ± 0.023
GGTAAGTCTA	0.9832 ± 0.0059
GGTAATATAC	1.057 ± 0.0076
GGTAATGCGG	1.01 ± 0.041
GGTAATTTTG	0.996 ± 0.061
GGTACAAGAT	1.03 ± 0.013
GGTACACACA	1.26 ± 0.061
GGTACCAAAA	0.992 ± 0.024
GGTACGCG	0.982 ± 0.027
GGTACGGAGA	1.02 ± 0.011
GGTACGGTTT	1.04 ± 0.02
GGTACTAATA	1.023 ± 0.007
GGTACTACCG	1.03 ± 0.044
GGTACTCATT	0.994 ± 0.034
GGTACTGGGG	1.06 ± 0.015
GGTACTTCTA	1.01 ± 0.018
GGTACTTGTA	1 ± 0.016
GGTAGAAACT	1.04 ± 0.014
GGTAGACCGC	0.987 ± 0.053
GGTAGAGTAA	1 ± 0.033
GGTAGATAGT	0.979 ± 0.029

Sequence	switch fluorescence ratio
GGTAGCAGTT	1 ± 0.026
GGTAGCCGGT	1.01 ± 0.041
GGTAGCGTCT	1.06 ± 0.09
GGTAGGACTC	1 ± 0.026
GGTAGGATAG	0.9728 ± 0.0016
GGTAGGGAAC	0.975 ± 0.029
GGTAGGGAAT	0.974 ± 0.029
GGTAGGGCGG	1.01 ± 0.068
GGTAGGGGGA	1.02 ± 0.046
GGTATAAATG	1 ± 0.019
GGTATAAGGT	1.006 ± 0.01
GGTATACGCA	1.14 ± 0.028
GGTATAGAGC	1.02 ± 0.05
GGTATAGCAC	1.07 ± 0.016
GGTATAGCGC	1.01 ± 0.051
GGTATAGGAT	0.991 ± 0.025
GGTATAGTAG	0.99304 ± 0.00031
GGTATAGTTA	1.02 ± 0.037
GGTATATAGG	1.01 ± 0.027
GGTATCCGGC	1.03 ± 0.088
GGTATCGGAA	0.984 ± 0.055
GGTATCTAGT	1.02 ± 0.032
GGTATCTGTT	0.986 ± 0.016
GGTATGAGTG	0.9737 ± 0.006
GGTATGTGTG	1.03 ± 0.024

Sequence	switch fluorescence ratio
GGTATTAGCT	1.01 ± 0.013
GGTATTAGGT	1.01 ± 0.011
GGTATTCGGT	0.971 ± 0.04
GGTATTGAAG	0.999 ± 0.024
GGTATTGTTT	0.9881 ± 0.0066
GGTATTTAGG	1.02 ± 0.029
GGTCAAATAA	0.99 ± 0.042
GGTCACTGCG	0.9955 ± 0.0064
GGTCAGCCGG	1.02 ± 0.012
GGTCAGTGGT	1 ± 0.022
GGTCAGTTAT	0.99 ± 0.047
GGTCATAGGT	0.994 ± 0.022
GGTCATATAG	1.032 ± 0.0012
GGTCATGGTG	1.08 ± 0.024
GGTCATTGGA	1.09 ± 0.064
GGTCCATTTT	0.969 ± 0.017
GGTCCCGGTG	1.1 ± 0.013
GGTCCGGCGG	0.984 ± 0.057
GGTCCGGGCG	0.997 ± 0.024
GGTCCGGGTT	1.006 ± 0.01
GGTCCGGTTC	1.01 ± 0.025
GGTCCGTAGT	1.04 ± 0.017
GGTCCTGGGA	1.02 ± 0.059
GGTCCTGTCG	1.03 ± 0.042
GGTCGAAATT	1.15 ± 0.31

Sequence	switch fluorescence ratio
GGTCGAAGGG	0.985 ± 0.051
GGTCGAGAGG	0.971 ± 0.03
GGTCGCACGG	1.02 ± 0.026
GGTCGGCTAG	0.9954 ± 0.0083
GGTCGGGGAA	1.01 ± 0.042
GGTCGTGGCA	0.969 ± 0.028
GGTCGTTCGC	1.01 ± 0.038
GGTCGTTTTT	1.044 ± 0.0029
GGTCTAATCT	1.04 ± 0.015
GGTCTACTTT	0.998 ± 0.021
GGTCTAGCCT	0.9858 ± 0.0066
GGTCTAGGTG	1.2586 ± 0.00091
GGTCTCCGGC	1.01 ± 0.065
GGTCTCTTTG	0.9663 ± 0.0084
GGTCTGATTG	1.01 ± 0.065
GGTCTGCTTA	0.9828 ± 0.0065
GGTCTGTTTT	0.992 ± 0.022
GGTCTTAGTG	0.982 ± 0.017
GGTGAACGTG	0.97 ± 0.041
GGTGACAGCT	0.979 ± 0.023
GGTGACTATT	0.979 ± 0.037
GGTGAGGGGT	0.997 ± 0.035
GGTGATAGCT	0.987 ± 0.076
GGTGATAGGG	0.98 ± 0.036
GGTGATGAGA	0.991 ± 0.06

Sequence	switch fluorescence ratio
GGTGATTCTG	0.965 ± 0.038
GGTGATTGCT	0.967 ± 0.036
GGTGCAGCGG	0.982 ± 0.018
GGTGCCAAGG	0.959 ± 0.02
GGTGCGACTC	1.04 ± 0.05
GGTGCGGGAT	0.992 ± 0.043
GGTGCGGTTG	0.9975 ± 0.00035
GGTGGACGGG	0.974 ± 0.015
GGTGGAGAGG	0.929 ± 0.018
GGTGGAGTTT	0.987 ± 0.015
GGTGGATCTT	1.03 ± 0.015
GGTGGATGGG	0.987 ± 0.014
GGTGGCATTT	1.08 ± 0.011
GGTGGCGTAC	1.018 ± 0.01
GGTGGGAAGT	0.987 ± 0.021
GGTGGGAGTT	1.04 ± 0.032
GGTGGGATTA	1.014 ± 0.009
GGTGGGGCGT	1 ± 0.017
GGTGGGGGAG	1.01 ± 0.043
GGTGGGGGCA	0.979 ± 0.029
GGTGGGGGCC	1.03 ± 0.011
GGTGGGGTGA	0.9856 ± 0.0078
GGTGGGTCGG	0.98 ± 0.036
GGTGGGTGCT	0.995 ± 0.052
GGTGGGTTGC	0.9858 ± 0.0086

Sequence	switch fluorescence ratio
GGTGGTAAGA	0.978 ± 0.074
GGTGGTCGAG	0.989 ± 0.02
GGTGGTCGGT	0.9787 ± 0.0066
GGTGGTGGGA	0.977 ± 0.04
GGTGGTGGGG	0.968 ± 0.03
GGTGGTTGCA	1 ± 0.024
GGTGTACGGG	0.987 ± 0.036
GGTGTAGTAT	0.9759 ± 0.008
GGTGTATAA	0.995 ± 0.032
GGTGTATTTA	1.02 ± 0.017
GGTGTCAGCT	0.967 ± 0.038
GGTGTCCGGG	0.9986 ± 0.0019
GGTGTCGGGA	0.9705 ± 0.009
GGTGTCGGTC	0.956 ± 0.049
GGTGTGCATA	0.994 ± 0.028
GGTGTGCATG	0.99 ± 0.053
GGTGTGCTTT	1.02 ± 0.025
GGTGTGGGCA	0.998 ± 0.041
GGTGTGGTGG	1.01 ± 0.027
GGTGTGTTCT	0.985 ± 0.011
GGTGTTACTG	1.03 ± 0.048
GGTGTTCGCA	1.02 ± 0.014
GGTGTTCGGA	1 ± 0.031
GGTGTTGAAG	0.986 ± 0.044
GGTGTTGTTT	0.963 ± 0.019

Sequence	switch fluorescence ratio
GGTGTTTATG	0.9841 ± 0.0034
GGTGTTTTAG	0.989 ± 0.021
GGTGTTTTTG	1.05 ± 0.054
GGTTAAAGAG	0.9868 ± 0.008
GGTTAACTTG	0.975 ± 0.034
GGTTAAGAAC	0.993 ± 0.019
GGTTAATGTT	0.998 ± 0.026
GGTTAATTAA	1.03 ± 0.019
GGTTAATTAC	1.02 ± 0.034
GGTTAATTTT	1.02 ± 0.028
GGTTACCTTT	0.996 ± 0.042
GGTTACGGGT	0.994 ± 0.057
GGTTAGCGTC	1.03 ± 0.059
GGTTAGGAAA	0.998 ± 0.021
GGTTAGGCAT	1 ± 0.0058
GGTTAGTGGG	0.998 ± 0.017
GGTTATAGTA	0.989 ± 0.042
GGTTATGTTG	0.977 ± 0.047
GGTTATTAAA	0.998 ± 0.01
GGTTCAAAGT	0.9703 ± 0.0047
GGTTCAGCCT	1.01 ± 0.018
GGTTCATACG	1.008 ± 0.0041
GGTTCATGTG	1.01 ± 0.015
GGTTCCATGC	1.1 ± 0.014
GGTTCGAAGG	0.95 ± 0.032

Sequence	switch fluorescence ratio
GGTTCGCAGC	1.15 ± 0.025
GGTTCGGGGA	0.98 ± 0.019
GGTTCGTGGG	1.01 ± 0.02
GGTTCTAGTG	0.968 ± 0.025
GGTTCTCAGT	0.988 ± 0.0097
GGTTCTCTAG	0.976 ± 0.01
GGTTCTTCAA	1.01 ± 0.023
GGTTGAACAT	0.9661 ± 0.0027
GGTTGACTCT	1.01 ± 0.029
GGTTGCAGCC	1.02 ± 0.026
GGTTGCTGTC	0.964 ± 0.045
GGTTGGAAAA	1.0226 ± 0.00079
GGTTGGAGGC	1.03 ± 0.067
GGTTGGCATG	0.952 ± 0.03
GGTTGGCGTC	0.955 ± 0.041
GGTTGGCTCG	1 ± 0.025
GGTTGGGCTT	0.979 ± 0.012
GGTTGGGTGG	0.986 ± 0.03
GGTTGGTACG	1.01 ± 0.019
GGTTGGTGCG	1.1 ± 0.074
GGTTGTAAAA	0.9867 ± 0.0092
GGTTGTAAGG	1.01 ± 0.033
GGTTGTATTT	0.962 ± 0.06
GGTTGTGGCT	0.9883 ± 0.0059
GGTTGTTGGA	0.999 ± 0.0057
